Assay results: patent US20180155405A1 (AB INITIO BIOTHERAPEUTICS, published 2018)
Read-outs that look alike come from different tables or passages of the source.

Experiments:
[1] = biological target: T1, CD47 on human cells (CD47+, PDL1+); experiment: in vivo receptor occupancy: NSG mice injected with GV3 on three consecutive days, spleen cells harvested 1 hr and 24 hrs after the last injection, free CD47 read by SIRPA-tetramer binding (FACS) on human HL60-Tg(hPDL1, GFP) cells
T1 construct: These cells also carry human PD-L1; also called HL60-Tg(hPDL1, GFP) cells isolated from the spleen; human CD47+ PDL1+ cells
T1 sequence (chain, as listed by the source limits assumed): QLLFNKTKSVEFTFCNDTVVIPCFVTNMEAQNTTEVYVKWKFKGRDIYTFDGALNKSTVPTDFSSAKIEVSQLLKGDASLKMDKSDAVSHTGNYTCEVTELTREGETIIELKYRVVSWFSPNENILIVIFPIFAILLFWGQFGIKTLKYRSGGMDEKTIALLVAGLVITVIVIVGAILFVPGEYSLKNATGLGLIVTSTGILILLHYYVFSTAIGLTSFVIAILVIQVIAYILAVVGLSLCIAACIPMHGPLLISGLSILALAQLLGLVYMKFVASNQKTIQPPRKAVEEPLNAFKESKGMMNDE

[2] = biological target: T2, CD47 on the surface of GFP-luciferase+ DLD1-Tg cells (UniProt Q08722 19-323, limits assumed); experiment: flow cytometry competition on DLD1-Tg(GFP-Luc) cells (CD47+), competitor 50 nM biotinylated SIRP-alpha tetramer
T2 construct: whole, on cells; also called CD47+ cells; CD47+ PD-L1+ cells
T2 sequence (Q08722 19-323 limits assumed): as the sequence (chain, as listed by the source limits assumed) above

human PD-L1 = biological target: T3, human PD-L1 (human, UniProt Q9NZQ7 19-239, limits assumed, biotinylated in Examples 4 and 5); experiment: SPR, HGV3 held on chip-captured biotinylated human CD47, then PD-L1 injected; the PD-L1 concentration is not shown
T3 construct: also called biotinylated human PD-L1
T3 sequence (Q9NZQ7 19-239 limits assumed): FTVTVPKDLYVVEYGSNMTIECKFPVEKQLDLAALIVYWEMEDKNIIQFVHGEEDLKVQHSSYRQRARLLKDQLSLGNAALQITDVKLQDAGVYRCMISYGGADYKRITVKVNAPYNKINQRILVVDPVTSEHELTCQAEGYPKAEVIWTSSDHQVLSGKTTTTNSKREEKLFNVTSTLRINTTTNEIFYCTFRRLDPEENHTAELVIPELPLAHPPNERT

[3] = biological target: T4, CD47 on mouse splenocytes (mouse, UniProt Q61735); experiment: in vivo receptor occupancy: NSG mice injected with GV3 on three consecutive days, spleen cells harvested 1 hr and 24 hrs after the last injection, free CD47 read by SIRPA-tetramer binding (FACS) on mouse splenocytes
T4 construct: cell surface, full length; also called % occupied CD47
T4 sequence (receptor on cells, looked up): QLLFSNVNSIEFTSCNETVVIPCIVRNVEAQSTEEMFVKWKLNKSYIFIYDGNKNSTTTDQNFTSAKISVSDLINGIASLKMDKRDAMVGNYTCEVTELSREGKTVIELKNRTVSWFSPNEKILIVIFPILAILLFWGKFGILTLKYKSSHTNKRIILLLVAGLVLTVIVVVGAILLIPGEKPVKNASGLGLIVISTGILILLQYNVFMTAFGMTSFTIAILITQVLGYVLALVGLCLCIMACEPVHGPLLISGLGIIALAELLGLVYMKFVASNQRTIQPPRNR

[4] = biological target: T2, CD47 on the surface of GFP-luciferase+ …
[5] = biological target: T5, CD47 on total splenic cells; experiment: in vivo receptor occupancy: NSG mice injected with GV3 on three consecutive days, spleen cells harvested 1 hr and 24 hrs after the last injection, free CD47 read by SIRPA-tetramer binding (FACS)
T5 construct: also called % occupied CD47
T5 sequence (Q61735 whole entry, species assumed, looked up): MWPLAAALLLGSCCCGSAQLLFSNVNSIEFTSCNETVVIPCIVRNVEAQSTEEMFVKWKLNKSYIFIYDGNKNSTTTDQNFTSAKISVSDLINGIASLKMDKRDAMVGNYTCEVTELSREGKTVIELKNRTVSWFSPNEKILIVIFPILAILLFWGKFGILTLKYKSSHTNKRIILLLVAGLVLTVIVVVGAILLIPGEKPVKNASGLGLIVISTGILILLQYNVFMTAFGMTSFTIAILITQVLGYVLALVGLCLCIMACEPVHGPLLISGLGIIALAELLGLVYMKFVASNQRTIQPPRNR

[6] = biological target: T6, biotinylated human CD47 (IgSF domain, residues 1-117, C15G) (human, UniProt Q08722 19-135, biotinylated in vitro with BirA ligase on the biotin acceptor peptide tag); experiment: SPR (Biacore T100), biotinylated CD47 on SA chip, 1:1 Langmuir model
T6 construct: range 1-117; Captured on a Biacore SA chip; also called biotinylated CD47
T6 sequence (Q08722 other isoform, or with tags, fused parts or gaps C15G C15G limits assumed): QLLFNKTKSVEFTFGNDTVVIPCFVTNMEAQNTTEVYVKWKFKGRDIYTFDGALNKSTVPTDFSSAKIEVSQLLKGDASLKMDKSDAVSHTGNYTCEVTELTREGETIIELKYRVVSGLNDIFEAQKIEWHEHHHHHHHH

B1: SIRP-gamma variant GV3 (designed binder)
chain: EEELQIIQPEKLLLVTVGKTATLHCTITSLFPVGPIQWFRGVGPGRVLIYNQKDGHFPRVTTVSDGTKRNNMDFSIRISSITPADVGTYYCVKFRKGSPEDVEFKSGPGTEMALGAKPSHHHHHHHH
notes: Monomers were made as MBP fusions in E. coli and MBP was removed with 3C protease; also called HGV3; human GV3
B1 was tested, and the RO half-life [1] was ~30 h, the “IC50 (read off the curve)” value [2] was ~0.7 nM and the binding result (human PD-L1) was “no binding”. The RO half-life [3] was ~5 h, the “IC50 (read off the curve)” value [4] was ~1 nM and the RO half-life [5] was ~10 h. The Kd [6] was 0.092 nM and the “dissociation half-life T1/2” value [6] was ~0.733 h.
